Measurements taken from patent US20260374878 (published 2026).

Target: T1, CLL1 (expressed on K562-CLL1 cells) (human, UniProt Q5QGZ9)
T1 chain: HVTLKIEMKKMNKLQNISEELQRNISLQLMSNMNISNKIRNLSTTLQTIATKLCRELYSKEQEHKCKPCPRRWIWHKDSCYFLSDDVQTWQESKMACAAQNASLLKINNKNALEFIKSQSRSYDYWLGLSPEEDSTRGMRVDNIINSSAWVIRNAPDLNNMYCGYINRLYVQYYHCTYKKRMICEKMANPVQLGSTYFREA
Assay: FACS, K562-CLL1 cells, room temperature, bivalent Fc fusion

Kd: 5 nM
B1: CLL1-VHH-16-hFc (antibody)
chain 1: DVQLQESGGGLVQPGGSLRLSCAASGFTFGSYDMTWVRQAPGKGPEWVSGINSGGSSTYYADSVKGRFTISRDNAKNTLYLQMNSLKPEDTAVYYCATIDRLSTVVAGTYQPSEEYDYWGQGTQVTVSS
chain 2: not shown
